Consider two molecules from article PMC6448818, “A novel evolutionary conserved mechanism of RNA stability regulates synexpression of primordial germ cell-specific genes prior to the sex-determination stage in medaka”.

Data set [1] concerns the target T1, Ol-bsf (Ol-lrpprc, Bicoid Stability Factor) (Oryzias latipes, UniProt H2LIH1 1-1438).
T1 sequence: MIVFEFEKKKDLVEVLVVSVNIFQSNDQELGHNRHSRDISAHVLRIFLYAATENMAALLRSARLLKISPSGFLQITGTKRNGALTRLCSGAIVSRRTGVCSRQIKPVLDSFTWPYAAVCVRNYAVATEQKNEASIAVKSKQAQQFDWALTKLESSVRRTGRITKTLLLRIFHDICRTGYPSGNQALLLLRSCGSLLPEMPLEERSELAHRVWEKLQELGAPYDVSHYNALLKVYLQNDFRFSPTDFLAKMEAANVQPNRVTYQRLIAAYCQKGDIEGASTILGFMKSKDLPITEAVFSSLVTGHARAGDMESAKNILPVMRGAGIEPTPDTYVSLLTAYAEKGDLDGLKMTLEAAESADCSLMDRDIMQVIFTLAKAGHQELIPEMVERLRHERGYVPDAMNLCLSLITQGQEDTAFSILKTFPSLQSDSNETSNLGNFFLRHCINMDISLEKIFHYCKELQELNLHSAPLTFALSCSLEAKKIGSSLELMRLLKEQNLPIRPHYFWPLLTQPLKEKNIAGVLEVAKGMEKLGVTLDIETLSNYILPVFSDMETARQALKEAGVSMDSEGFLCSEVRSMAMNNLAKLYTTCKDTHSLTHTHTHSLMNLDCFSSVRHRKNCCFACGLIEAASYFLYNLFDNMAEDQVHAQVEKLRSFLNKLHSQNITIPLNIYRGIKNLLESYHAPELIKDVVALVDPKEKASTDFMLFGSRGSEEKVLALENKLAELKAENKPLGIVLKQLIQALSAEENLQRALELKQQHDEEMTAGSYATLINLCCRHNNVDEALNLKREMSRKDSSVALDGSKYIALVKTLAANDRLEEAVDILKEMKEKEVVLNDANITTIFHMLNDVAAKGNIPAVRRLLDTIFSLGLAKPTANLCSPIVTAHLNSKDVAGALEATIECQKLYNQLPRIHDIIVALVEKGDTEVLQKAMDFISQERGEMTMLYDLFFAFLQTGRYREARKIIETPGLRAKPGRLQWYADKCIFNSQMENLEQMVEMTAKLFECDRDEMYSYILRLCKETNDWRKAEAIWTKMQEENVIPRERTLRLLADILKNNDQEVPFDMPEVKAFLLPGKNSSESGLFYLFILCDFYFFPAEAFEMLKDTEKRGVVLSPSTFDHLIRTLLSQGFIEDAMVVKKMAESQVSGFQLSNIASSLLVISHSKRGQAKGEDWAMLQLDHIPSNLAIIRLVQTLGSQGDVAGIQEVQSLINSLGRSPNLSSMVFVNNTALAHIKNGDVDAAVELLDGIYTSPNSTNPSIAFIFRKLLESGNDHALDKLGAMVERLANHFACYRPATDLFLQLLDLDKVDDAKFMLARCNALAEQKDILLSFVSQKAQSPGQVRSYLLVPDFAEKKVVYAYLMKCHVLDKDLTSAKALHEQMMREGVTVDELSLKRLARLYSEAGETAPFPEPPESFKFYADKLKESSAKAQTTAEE
The data set can be described thus: competition; vs labelled D3U-box, probe/competitor 1/5; EMSA: 10 mM Tris-HCl pH 7.9, 100 mM KCl, 10% glycerol, 5 mM MgCl2, 1 ug torula rRNA, 0.075% Triton X-100, 1 mM DTT, 1 ug BSA, 0.5 ng probe, 2 or 4 uL IVT mix in 20 uL, on ice 10 min; heparin (1/10 volume of 50 mg/mL) before loading; 5% native gel, 0.5x TBE. Conditions: protein: ivt; tags: FLAG.

The target in data set [2] is T1, Ol-bsf (Ol-lrpprc, Bicoid Stability …). In words: EMSA; self-competition 1/1 to 1/4 gave progressive loss of shift; EMSA: 10 mM Tris-HCl pH 7.9, 100 mM KCl, 10% glycerol, 5 mM MgCl2, 1 ug torula rRNA, 0.075% Triton X-100, 1 mM DTT, 1 ug BSA, 0.5 ng probe, 2 or 4 uL IVT mix in 20 uL, on ice 10 min; heparin (1/10 volume of 50 mg/mL) before loading; 5% native gel, 0.5x TBE. Conditions: protein: ivt; tags: FLAG; label: 5'-32P when probe.

With UGGUUCACGUUCUUCAAGACGCUCUGACUCU (ssRNA) [D3U-scrambled box (S-D3U-box)], the binding result in data set [1] is on record as “no binding”. Turning to UGGUUCACGUCUGCUGCAGGUCUCUGACUCU (ssRNA) [native medaka D3U-box], in data set [2], the binding result was “binds”.
